The source of these data is a protein production outcome set (Wang et al. 2014).

The data set can be described thus: label from the status in PepcDB records.
Consider “MKLSSLLNSENSEKNHLQIQQSGQRRIDRMAQSGVGKSSLWSLAEVGWTAGPVTFLAAQGGYYLGFGTWLPNENLIFFVGYTVLMGLIAVLVKFIYKATKGQELDDAKEQLLLVIGSLPDFILSVRDLTLSRMEPESRRYESARILLQKSDLGPQWLTLAVNSIIDSPVIAQAVANIEIYWRAGMYSRIHDINQELSTEISAALASLEPDRPRLARLLEQRLQGKKNTLRSGVEREPFFIERIFSAIEEDNEDIMGLSDVEEVLTLAFELLSGRRIPMLVVNCVGSSQLTIATKKLEKERSKYRIARARGYSQLLALANFLSDSNLLDYSTVAERLPSSDLLQICLETIDRLCQNICDDIGCVQKRENVDMRALKLNHSVLIKALELYQQAYRSSAMVLNEHADFLKDINSWQRINLKYADANTKVSVTGKQGLHIIERQIQLTDADKITVVKKIAHHFDSQSILSKGLRNRTQQSNWQVSNQHVRAAKQLAIDLALALNPCVFISLPEVQGAIYSSNAVDLGSFEPGLSTTTKVGWGESVAKEVKKDMVKASEQIAQAIHRYYGICLGDKELDFMHQTYGMNKEHVIDYYLENEQGEQSSNVFEPRSPLMIPEVKFAWRKTLTLYRQHI”, for which the protein production entry was “failed”.
Take “MKEIESKTSAKIITDTFVRIFLIFSLLITIIVSGIVAFTSLQIRKSEGAALLNSVQTAATNGQVNWDEFKLDSEKDEKATFVRLTSPSGQREESQGTTNFLKSRKSWGNFSLLRDDIFLYSSKTSKNGTKAELWLNINVVVKSMIRAILVIIAVMIFLFFLALILIQKAARTISQPLTDIVVATDGKDVKQVPVSKNPLEVHQLSQSFNRLLNRLNQKIENEQQFVSDASHELRTPVAAIRGHVNLLKRRWHEHPEIVDESLSYIDEESMRMKVLIENLLTISRGNHLEIKKERINLSKFTDKVVSEIQLALRQKINFDIQTDLFVSMDKMALYKIIIIFLENAGKYSPSNSEITINITLENHQVDFQVADEGIGVPEEEKDNIFERFYRIDKSRSSEIPGTGLGLAIAKEYAQLNDAKVFVSNNSPKGSTFHLLMESIEN”: the protein production result is on record as “failed”.
As for “MNEQIPHDKSLDNSLTLLKEGYLFIKNRTERYNSDLFQARLLGKNFICMTGAEAAKVFYDTDRFQRQNALPKRVQKSLFGVNAIQGMDGSAHIHRKMLFLSLMTPPHQKRLAELMTEEWKAAVTRWEKADEVVLFEEAKEILCRVACYWAGVPLKETEVKERADDFIDMVDAFGAVGPRHWKGRRARPRAEEWIEVMIEDARAGLLKTTSGTALHEMAFHTQEDGSQLDSRMAAIELINVLRPIVAISYFLVFSALALHEHPKYKEWLRSGNSREREMFVQEVRRYYPFGPFLGALVKKDFVWNNCEFKKGTSVLLDLYGTNHDPRLWDHPDEFRPERFAEREENLFDMIPQGGGHAEKGHRCPGEGITIEVMKASLDFLVHQIEYDVPEQSLHYSLARMPSLPESGFVMSGIRRKS”, the protein production result is “not failed”.
Next, “MTQLIKSLPGWLKLMLIFPIFFLNGVLLSLIINRFRELFDYIIIATLVTFLLKLTINFLVSKGIGKRLAIFAVITISFALIALGGITLIPLMGNQLGNLSQDIPRWLSGSQEHLANLKNSTLFLTLDNAGVNVDDLFQKAYLTLSKELDRIGQISLKVLTETIGGVVDTLVILVLTIFLLVGGDTFWQGILSWLPSPWEKKIPQYAGEIFRDYFISRLILAAGSSMARLVVFMALGIPYSILFAFSLGLASLIPFAGAVVTLIGTLVLLLKGWVVAVKFFVSAIVIDQITDNGVAPKLMGDKIGLNPVWILISIFIGAEIAGLLGVLLAVPIASVIKKVIDDMRAGKTENEEIDTEEQVEVLPESLA”: “failed”; “MKGFAMLGINKLGWIEKERPVAGSYDAIVRPLAVSPCTSDIHTVFEGALGDRKNMILGHEAVGEVVEVGSEVKDFKPGDRVIVPCTTPDWRSLEVQAGFQQHSNGMLAGWKFSNFKDGVFGEYFHVNDADMNLAILPKDMPLENAVMITDMMTSGFHGAELADIQMGSSVVVIGIGAVGLMGIAGAKLRGAGRIIGVGSRPICVEAAKFYGATDILNYKNGHIVDQVMKLTNGEGVDRVIMAGGGSETLSQAVSMVKPGGIISNINYHGSGDALLIPRVEWGCGMAHKTIKGGLCPGGRLMKGFAMLGINKLGWIEKERPVAGSYDAIVRPLAVSPCTSDIHTVFEGALGDRKNMILGHEAVGEVVEVGSEVKDFKPGDRVIVPCTTPDWRSLEVQAGFQQHSNGMLAGWKFSNFKDGVFGEYFHVNDADMNLAILPKDMPLENAVMITDMMTSGFHGAELADIQMGSSVVVIGIGAVGLMGIAGAKLRGAGRIIGVGSRPICVEAAKFYGATDILNYKNGHIVDQVMKLTNGEGVDRVIMAGGGSETLSQAVSMVKPGGIISNINYHGSGDALLIPRVEWGCGMAHKTIKGGLCPGGRLRAEMLRDMVVYNRVDLSKLVTHVYHGFDHIEEALLLMKDKPKDLIKAVVIL”: “not failed”; “SEEDDEVVAMIKELLDTRIRPTVQEDGGDVIYRGFEDGIVRLKLQGSCTSCPSSIITLKSGIQNMLQFYIPEVEGVEQV”: “not failed”.
For the sequence “VLYYKDFKIGLGKNQKENIKLLQDARANDLWMHVRNIPGSHLIVFCQKNAPKDDVIMELAKMLIKMQKDAFNSYEIDYTQRKFVKIIKGANVIYSKYRTISLKDT”, the protein production result is given as “failed”.
In the case of “MKQRTLPAAFLLALSIASLAGCASPTVITLNDGREIQAVDTPKYDEDSGFYEFKQLDGKQTRINKDQVRTVKDLLEHHHHHH”, the protein production result is given as “failed”.
Regarding “MTRASLDKQPHEVASMFDDVAERYDLTNDLLSLGQDRVWRREVAKAVDARPAQKILDLAAGTATSSLPFARAGAYVVPCDFSLGMLRVGKKNHPWLPLTAGDATKLPFKDDTFDAVTISFGLRNVQDTDTALSELYRVTKPGGRVVICEFSHPTWAPFRTVYTEYLMRALPPVARAVSSNPDAYVYLAESIRAWPTQPELAERLRKAGWSKVAWRNLTGGVVALHRGFKAV”, the protein production result is “failed”.
For “PFKESQARGLLQDNMANSYNGGDFEDGLLNLSKEVFPTDKYLYQDGQFLDKKTINAYLNPKYTKREIDKMSEKDKKDKKANENLGLNPSHEGETNPEKIAEKSPAYLSNILEQDFYGGGDTKGKNIKGMTIGLAMNSVYYYKKEKDGPTFSKKLDDSEVKKQGKQMASEILSRLRENDDLKDIPIHFAIYKQSSEDSITPGEFITQATAEKSQTKLNEWHNINEKSALLPSSTAADYDENLNNNFKQFNDNLQSYFSNFTQAVGKVKFVDKKPQRLVVDLPIDYYGQAETIGITQYVTEQANKYFDKIDNYEIRIKDGNQPRALISKTKDDKEPQVHIYSN”, the protein production result is “not failed”.
In the case of “MGNQDTIIETDNGNSDYETPQPTSFPLEHNHFGVMEDGYIKIYEYNESRNEVKLKKEYADDELELEHHHHHH”, the protein production entry is “not failed”.
For “MEGFLMKKTWIALSLLIAFSASSLLPMQAKEATLPKDERYHLVNTSEKGEYELLNTYDSYTEAEKNFQRLSKKYNNLGITYGDSFLQVEQGVVAFPTNSDCSLNTDYILDETNTNGYLNGCYGGDAAFLEYDSYTNQIKFKISGVVAWSDATALTVYPIEKLPNVSSFIVKDGILYHQLKSSATSPSFSSVLPLSKAPSYLKESTTYYSYDTHYFYEAYDQLIKDERLATHQHAINAKKPYYNYYQYLDHRSTTDYTPKQIQSYFKQNLGFQANITNFYDTDNYVHDILTQSLLYGNSEAFFQYQNQFGANALMMLSLSLNESALGKSYIAYNKNNLFGHAAFDSSAEESASRYQSVAASVYSHALHYLSESYLNPEAFQYYGGYFGNKAGGMNVAYASDPYWGEKSASYFMRMDRDMGYQDENNYQLGIAQGQAVKVYASASKKAKLLYTTEEGYDASFILQKKIKNKSGTWYQVQSDIALTKSKESIQDGSYPFATSIGYVKADDIDVITGAEKAANKSYLPITFDAVDGSFYPNTSSITLFVEKGQMPVILDPIKENALFDGWDITLEPATNALTYKATYKHIKNIEVIEKPQTKYNLGDTLNLKHGKIRVTFEDGSSKEVALNNDMVSGFHNDQSGKQRLTITYGGSTTYYDIEMDNQQEERINDVKKQAAHVIKTYMGKVGLNSEALDELIRLRNQLGQFDMQVLPRDQIRVIDRILQENLEPRYSVIIKDDTYDMQVSGLSIALQGESSFLNNIMPKTLRLDVNNDIPKEEKQFVEKVAKANGMNVASYLAIEGTDDFSTLKLQSQLVYSIQKPKKDIDHRIYSVYYISGKDIYQLPTTQSKNRIVFPNDKLGHYAVVWKHADSITHSKDFQEVNTIKQNGKDYIKVYILLPCIIILLTLALLALILYMRKRKIKPFKA”, the protein production entry was “failed”.
Next, “MPKKYDEATKSKAVRLVVDHRDEYDSEYGCIRAVATRIGVGPETLRKWVRQAEIDGGERDGVTTATNRENRELKRKVAELEQTVEMLRAATTFFVRESDPRHR”: “failed”; “MSIESLWSSRFQQHIQNIITYFARMINGLLYSFIFISCVGAYYYAQFLKASPSKGISLIIITIVLTFIITRCPIRTFIQKPDAVYLLALEEKLTSYFKKSLLYNYIMQLFPLLFTFLILVPLAMQSLQLTVPFLCTIFIVLMITKAWNMYIHWMWRDSHEKNIWLIIRITCNALIIYMLFYSANVLILGGLLLLLAFLLLYTKKQPTKRIPWDYIIEQEEKMNVRFYQFASIFTDVPQLNKQVNKRKWLTNWIEPLLHKKRATFFYLHTLAFLRGNDYFGIYIRLRLIGAFALYFIPNIYVKGAIAYIVLYMISMQLRSLWKYFSGNIIVALYPIHTEERMKQFLHLIFILLSIQLIVFSSVILIATGQFLHILIIMIVGLLWIKFIIVPKTKQRISAF”: “failed”.
The value for “MSKKETDLGRDSIGKLLFKLAMPAIIAQLVNVLYNIVDRMFIGRLQSGDMAMAGVGVAFPIIMIVAAFSGLVGMGGAPLAAIKMGEKKKEDAEEIMTNSFSALIGLALFLTVFFFIFKEPILWAFGASDATIGYALDYLGIYLIGTIFVQIALGMNSFINTQGFAKVGMITVMVGAVINIVLDPILIFGFNMGVKGAALATIIGQCASAIWVLYFLFEKQSILRIRKKFLKPKLKILFSIMALGVSPFIMQATESLVIISMNNNLLKYGGDLAVGAMTIMSSVMQIILLPLMGLSQGAQPIISYNYGANKVYRVKKAFKLLLVSSMVFTTIMWSALMMLPDVFVKIFNSNNPQLMEITSWSIKIYFAGILLFGAQVACQQTFLALGQAKISLILALLRKIVLLIPFIYVLPMVFENKLMGVLMAEPFADIIAALSTVTCFIVFYKKHLSQGLEEEIKVNS” was “failed”; that for “PQKKVIVLVHGLASSPEAWIALTNDIMGDNILREHYQVWQVFYSTNMPILESRFQIYALLKQAFDSLNPNDPADHNAVLIGHSMGGIISRLLVSQADISQKAFSLVSPYQQAQLKKQPMVYQRLKIQPIPNFDRAIFMSAPHHGTDFADLWFTRAARKIIKLPGAFLGAITDTVTNENIDAKDLLLRIDQGLIQNGPSDLSYKSKFIELTKNINPPSGFVFHSIIGNNTKSDDPEKITDGIVPYKSAHLEGSASEKIIQGGHSIQETPQAVLELRRILRLHLKEHQ” was “failed”.
Next, “MLGSTDLVLLGKVVATHGIRGQLSVVPFSGEFSTILSMQTVYLSGPDNRKESFEVDRAAVHRNRVLLTLKGFANINEVLHLVGRELFARRDQFPPLDEGEFYWCDLIGLSVTTSEGLSLGRIEEIIATGSNDVYVVRDGEREYLIPALEDIVVGVDLDKGIMTVSPTEGLLDLLEHHHHHH”: “not failed”; “MGSEVVNPTKPRFDLSMSKRTRKPWSSLINDMHHHAICTQSSQPKPDKEQEQIEDKEIDRKSLNNLMRCDEKLNGEADVNNKSSLDQHFEDGEGIKPTMQLVVKKEKQGGLKFKGLSQHIFRLIEFLLSYRTDY”: “failed”.
With “MGALAAAMFDLRSRRENPGPESDPRKGRDRQRPSDARETKEDLKSQPDLRQVKEKVRNDEIAIQSESLVEYKERNQRRDDVLQVPELYDVLLPKLRVRIVFGSSFKPRKSTGRQWSMTQSWLKIKMNTNENEV”, the protein production result is “failed”.
